# B1: Speckle-type POZ protein (Homo sapiens), O43791 (parent)
# chain: MSRVPSPPPPAEMSSGPVAESWCYTQIKVVKFSYMWTINNFSFCREEMGEVIKSSTFSSGANDKLKWCLRVNPKGLDEESKDYLSLYLLLVSCPKSEVRAKFKFSILNAKGEETKAMESQRAYRFVQGKDWGFKKFIRRDFLLDEANGLLPDDKLTLFCEVSVVQDSVNISGQNTMNMVKVPECRLADELGGLWENSRFTDCCLCVAGQEFQAHKAILAARSPVFSAMFEHEMEESKKNRVEINDVEPEVFKEMMCFIYTGKAPNLDKMADDLLAAADKYALERLKVMCEDALCSNLSVENAAEILILADLHSADQLKTQAVDFINYHASDVLETSGWKSMVVSHPHLVAEAYRSLASAQCPFLGPPRKRLKQS
# partner: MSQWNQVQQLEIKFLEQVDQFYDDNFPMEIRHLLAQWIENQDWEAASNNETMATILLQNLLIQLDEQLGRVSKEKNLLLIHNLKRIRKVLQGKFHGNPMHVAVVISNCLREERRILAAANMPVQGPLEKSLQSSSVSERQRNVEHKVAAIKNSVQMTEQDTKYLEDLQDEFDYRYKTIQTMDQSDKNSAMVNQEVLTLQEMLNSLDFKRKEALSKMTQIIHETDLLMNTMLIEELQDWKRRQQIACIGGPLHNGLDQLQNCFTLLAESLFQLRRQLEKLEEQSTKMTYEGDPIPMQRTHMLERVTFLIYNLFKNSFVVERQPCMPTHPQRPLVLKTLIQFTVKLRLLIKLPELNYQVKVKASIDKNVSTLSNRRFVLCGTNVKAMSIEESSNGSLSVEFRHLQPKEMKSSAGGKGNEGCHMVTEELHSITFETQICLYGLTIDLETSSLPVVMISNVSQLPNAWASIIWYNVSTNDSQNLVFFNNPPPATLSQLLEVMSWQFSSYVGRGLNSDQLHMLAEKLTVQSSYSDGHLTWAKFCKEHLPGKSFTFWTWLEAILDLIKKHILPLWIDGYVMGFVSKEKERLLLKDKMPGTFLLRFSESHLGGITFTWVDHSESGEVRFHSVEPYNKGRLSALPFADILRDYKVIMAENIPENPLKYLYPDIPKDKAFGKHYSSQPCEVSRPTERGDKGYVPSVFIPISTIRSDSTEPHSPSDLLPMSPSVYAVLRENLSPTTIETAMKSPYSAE
# B2: Speckle-type POZ protein (Homo sapiens), O43791 (parent)
# chain: B1 chain
# partner: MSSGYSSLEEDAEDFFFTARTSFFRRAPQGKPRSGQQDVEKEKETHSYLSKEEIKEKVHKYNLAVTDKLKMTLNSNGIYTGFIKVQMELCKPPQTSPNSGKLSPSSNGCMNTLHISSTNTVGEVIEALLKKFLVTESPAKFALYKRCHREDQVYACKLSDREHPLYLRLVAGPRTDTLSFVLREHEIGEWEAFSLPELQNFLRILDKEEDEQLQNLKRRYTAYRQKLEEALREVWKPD
# B3: Speckle-type POZ protein (Homo sapiens), O43791 (parent)
# chain: B1 chain
# partner: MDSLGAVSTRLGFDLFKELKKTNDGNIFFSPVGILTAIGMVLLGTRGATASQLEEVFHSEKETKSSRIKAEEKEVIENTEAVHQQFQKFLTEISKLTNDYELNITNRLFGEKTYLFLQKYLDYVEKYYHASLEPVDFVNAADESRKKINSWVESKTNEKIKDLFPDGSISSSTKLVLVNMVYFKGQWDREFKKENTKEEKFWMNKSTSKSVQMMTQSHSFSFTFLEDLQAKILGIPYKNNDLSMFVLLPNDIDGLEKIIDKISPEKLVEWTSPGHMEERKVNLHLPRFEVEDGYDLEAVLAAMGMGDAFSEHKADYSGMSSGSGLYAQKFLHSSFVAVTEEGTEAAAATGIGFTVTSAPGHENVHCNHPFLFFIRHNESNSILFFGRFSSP
# B4: Speckle-type POZ protein (Homo sapiens), O43791 (parent)
# chain: B1 chain
# partner: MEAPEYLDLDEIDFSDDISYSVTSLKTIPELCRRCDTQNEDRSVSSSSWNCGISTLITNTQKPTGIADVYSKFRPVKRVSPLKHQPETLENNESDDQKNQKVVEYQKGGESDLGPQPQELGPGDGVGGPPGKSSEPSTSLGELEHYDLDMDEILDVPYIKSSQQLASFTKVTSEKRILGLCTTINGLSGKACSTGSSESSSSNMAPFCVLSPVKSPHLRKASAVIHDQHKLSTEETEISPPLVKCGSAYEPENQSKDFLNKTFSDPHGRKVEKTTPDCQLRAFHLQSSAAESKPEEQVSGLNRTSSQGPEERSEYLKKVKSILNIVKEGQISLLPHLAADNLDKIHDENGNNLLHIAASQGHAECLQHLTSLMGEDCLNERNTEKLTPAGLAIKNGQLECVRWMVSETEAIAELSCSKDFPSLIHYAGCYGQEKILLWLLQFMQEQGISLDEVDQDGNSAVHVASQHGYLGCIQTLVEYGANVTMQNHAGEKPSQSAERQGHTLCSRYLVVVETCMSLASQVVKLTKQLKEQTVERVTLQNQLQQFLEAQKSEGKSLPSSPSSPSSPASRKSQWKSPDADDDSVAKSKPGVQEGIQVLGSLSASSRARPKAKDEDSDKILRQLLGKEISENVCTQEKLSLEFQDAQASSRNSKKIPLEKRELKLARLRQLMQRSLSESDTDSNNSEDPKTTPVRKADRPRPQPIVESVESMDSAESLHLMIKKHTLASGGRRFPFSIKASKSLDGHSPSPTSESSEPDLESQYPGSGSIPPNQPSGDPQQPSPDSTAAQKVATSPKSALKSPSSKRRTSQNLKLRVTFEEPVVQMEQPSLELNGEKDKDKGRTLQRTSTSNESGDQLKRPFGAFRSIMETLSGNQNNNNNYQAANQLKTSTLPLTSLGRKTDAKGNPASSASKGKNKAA
# B5: Speckle-type POZ protein (Homo sapiens), O43791 (parent)
# chain: B1 chain
# partner: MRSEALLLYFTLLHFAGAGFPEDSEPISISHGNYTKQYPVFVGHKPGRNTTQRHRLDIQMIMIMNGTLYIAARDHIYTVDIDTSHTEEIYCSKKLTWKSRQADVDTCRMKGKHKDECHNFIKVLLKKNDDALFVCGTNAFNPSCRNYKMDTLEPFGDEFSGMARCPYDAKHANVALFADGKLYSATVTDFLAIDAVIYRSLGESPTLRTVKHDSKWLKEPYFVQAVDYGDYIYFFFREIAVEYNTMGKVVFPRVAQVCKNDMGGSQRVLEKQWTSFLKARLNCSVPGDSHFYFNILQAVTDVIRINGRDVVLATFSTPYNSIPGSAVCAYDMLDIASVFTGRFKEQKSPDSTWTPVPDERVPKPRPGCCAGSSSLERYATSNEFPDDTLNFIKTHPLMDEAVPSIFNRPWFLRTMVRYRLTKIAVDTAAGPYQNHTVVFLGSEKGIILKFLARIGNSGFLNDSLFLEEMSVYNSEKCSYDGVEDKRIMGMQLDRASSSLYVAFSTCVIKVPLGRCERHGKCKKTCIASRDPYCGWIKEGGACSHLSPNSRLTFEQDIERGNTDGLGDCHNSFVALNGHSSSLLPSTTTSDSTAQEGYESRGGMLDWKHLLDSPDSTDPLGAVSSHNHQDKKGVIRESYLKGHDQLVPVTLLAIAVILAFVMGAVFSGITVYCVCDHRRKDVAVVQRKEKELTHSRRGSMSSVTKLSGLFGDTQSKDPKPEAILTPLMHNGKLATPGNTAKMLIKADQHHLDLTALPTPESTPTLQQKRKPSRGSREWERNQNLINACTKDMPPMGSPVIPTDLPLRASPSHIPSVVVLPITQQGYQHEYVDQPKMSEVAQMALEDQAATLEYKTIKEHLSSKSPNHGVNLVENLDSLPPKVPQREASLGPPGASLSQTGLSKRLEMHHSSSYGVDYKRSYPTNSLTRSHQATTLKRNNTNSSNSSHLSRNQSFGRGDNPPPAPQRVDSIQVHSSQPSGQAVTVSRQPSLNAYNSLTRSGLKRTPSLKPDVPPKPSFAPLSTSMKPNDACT
# B6: Speckle-type POZ protein (Homo sapiens), O43791 (parent)
# chain: B1 chain
# partner: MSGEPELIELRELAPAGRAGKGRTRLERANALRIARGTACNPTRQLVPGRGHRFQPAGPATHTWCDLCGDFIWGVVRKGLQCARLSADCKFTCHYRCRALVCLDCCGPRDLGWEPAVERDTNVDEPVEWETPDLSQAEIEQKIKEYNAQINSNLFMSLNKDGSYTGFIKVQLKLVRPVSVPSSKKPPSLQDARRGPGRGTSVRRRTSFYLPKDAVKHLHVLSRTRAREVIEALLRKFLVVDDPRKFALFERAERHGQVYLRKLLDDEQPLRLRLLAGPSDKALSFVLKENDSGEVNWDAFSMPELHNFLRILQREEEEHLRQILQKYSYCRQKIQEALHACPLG
# B7: Speckle-type POZ protein (Homo sapiens), O43791 (parent)
# chain: B1 chain
# partner: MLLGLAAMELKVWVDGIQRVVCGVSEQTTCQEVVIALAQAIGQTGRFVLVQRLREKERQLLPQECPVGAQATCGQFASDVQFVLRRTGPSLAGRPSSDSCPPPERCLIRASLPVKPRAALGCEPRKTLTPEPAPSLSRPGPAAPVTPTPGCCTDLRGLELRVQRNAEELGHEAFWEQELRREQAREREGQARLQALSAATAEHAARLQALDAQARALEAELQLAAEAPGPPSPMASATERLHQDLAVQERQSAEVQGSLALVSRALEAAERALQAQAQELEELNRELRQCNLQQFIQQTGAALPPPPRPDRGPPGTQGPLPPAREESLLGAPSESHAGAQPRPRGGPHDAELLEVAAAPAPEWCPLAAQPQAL
# Variants of: B1
# Conditions: with stat4_human STAT4, Q14765
row,effect of a mutation on the interaction,Variant
1,with no effect,F102C

# Variants of: B1
# Conditions: with stat4_human STAT4, Q14765
# Remark: another data set of the same source
row,effect of a mutation on the interaction,Variant
1,with no effect,Y87C

# Variants of: B2
# Conditions: with rasf3_human RASSF3, Q86WH2
row,effect of a mutation on the interaction,Variant
1,with no effect,F133V

# Variants of: B2
# Conditions: with rasf3_human RASSF3, Q86WH2
# Remark: another data set of the same source
row,effect of a mutation on the interaction,Variant
1,with no effect,F133L

# Variants of: B2
# Conditions: with rasf3_human RASSF3, Q86WH2
# Remark: another data set of the same source
row,effect of a mutation on the interaction,Variant
1,with no effect,F102C

# Variants of: B2
# Conditions: with rasf3_human RASSF3, Q86WH2
# Remark: another data set of the same source
row,effect of a mutation on the interaction,Variant
1,with no effect,Y87C

# Variants of: B3
# Conditions: with spb13_human SERPINB13, Q9UIV8
row,effect of a mutation on the interaction,Variant
1,with no effect,F102C

# Variants of: B3
# Conditions: with spb13_human SERPINB13, Q9UIV8
# Remark: another data set of the same source
row,effect of a mutation on the interaction,Variant
1,with no effect,Y87C

# Variants of: B3
# Conditions: with spb13_human SERPINB13, Q9UIV8
# Remark: another data set of the same source
row,effect of a mutation on the interaction,Variant
1,with no effect,F133V

# Variants of: B3
# Conditions: with spb13_human SERPINB13, Q9UIV8
# Remark: another data set of the same source
row,effect of a mutation on the interaction,Variant
1,with no effect,F133L

# Variants of: B4
# Conditions: with sncap_human SNCAIP
row,effect of a mutation on the interaction,Variant
1,with no effect,F133L

# Variants of: B4
# Conditions: with sncap_human SNCAIP
# Remark: another data set of the same source
row,effect of a mutation on the interaction,Variant
1,with no effect,F133V

# Variants of: B4
# Conditions: with sncap_human SNCAIP
# Remark: another data set of the same source
row,effect of a mutation on the interaction,Variant
1,with no effect,Y87C

# Variants of: B4
# Conditions: with sncap_human SNCAIP
# Remark: another data set of the same source
row,effect of a mutation on the interaction,Variant
1,with no effect,F102C

# Variants of: B5
# Conditions: with sem6a_human SEMA6A
row,effect of a mutation on the interaction,Variant
1,with no effect,F102C

# Variants of: B5
# Conditions: with sem6a_human SEMA6A
# Remark: another data set of the same source
row,effect of a mutation on the interaction,Variant
1,with no effect,Y87C

# Variants of: B5
# Conditions: with sem6a_human SEMA6A
# Remark: another data set of the same source
row,effect of a mutation on the interaction,Variant
1,with no effect,F133V

# Variants of: B5
# Conditions: with sem6a_human SEMA6A
# Remark: another data set of the same source
row,effect of a mutation on the interaction,Variant
1,with no effect,F133L

# Variants of: B6
# Conditions: with rasf1_human RASSF1, Q9NS23
row,effect of a mutation on the interaction,Variant
1,with no effect,F133V

# Variants of: B6
# Conditions: with rasf1_human RASSF1, Q9NS23
# Remark: another data set of the same source
row,effect of a mutation on the interaction,Variant
1,with no effect,F133L

# Variants of: B6
# Conditions: with rasf1_human RASSF1, Q9NS23
# Remark: another data set of the same source
row,effect of a mutation on the interaction,Variant
1,with no effect,Y87C

# Variants of: B6
# Conditions: with rasf1_human RASSF1, Q9NS23
# Remark: another data set of the same source
row,effect of a mutation on the interaction,Variant
1,with no effect,F102C

# Variants of: B7
# Conditions: with rasf7_human RASSF7, Q02833
row,effect of a mutation on the interaction,Variant
1,with no effect,Y87C

# From IntAct's records for PubMed 35512704
